# Assay: soluble on expression in E. coli; label from the status in PepcDB or PDB records
row,Sequence,soluble on expression in E. coli
1,MSNFWVIALNKNWATLDQVKEAYYYDDVTKEELKEGVDNNLITPEQYQEIVGEAYTSVTLSTELEHHHHHH,not soluble
2,MSLKIVVTKFGGSSLADSNQFKKVKGIIDSDANRKYIIPSAPGKRTNKDYKITDLLYLCNAHVKNGIPFDDVFKLISQRYTEIVSELNIDMDIAYYLEKVKKNIENGASSDYAASRGEYLNGVILAKYLNAEFIDAAEVIFFDKSGCFDEKKSYEKIKEKVLSCNKAVIPGFYGSSFNGDVKTFSRGGSDVTGSIISAGVNADLYENWTDVSGFLMADPRIVENPKTISKISYKELRELSYMGATVLHEEAIFPVKDSGIPINIKNTNKPSDPGTLILSDTHKEINLGTITGIAGKKNFTVIAIEKALLNSEVGFCRKILSILEMYGVSFEHMPSGVDSVSLVIEDCKLDGKCDKIIEEIKKQCNPDSIEIHPNMALVATVGTGMAKTKGIANKIFTALSKENVNIRMIDQGSSEINVIVGVETVDFEKAVKSIYNAFNEGHHHHHH,soluble
3,MKSAELKYLDFEDFTKLIALAKEKINPIYSSSFMIYIAAMTGMRFSELLGLTWDNVDFEKGQIYVKRTWDIYKNNFAPTKNDQSVRFLAIDSSTMQVMINYKEQQEKLLKRLEIEPEHPFVFYNIKNGLITNNSLNKQLRNMCKKLGFKKIITCHGLRHTHASTMLYKGINILYVSKRLGHSSLNVTMSVYSHILKLEHHHHHH,not soluble
4,MSLNKVRLGIIGLGAQGGTYAGFINDNKIANLELGAICDIDPEKRTVAAEKYPNVPFYDNYIDMLESGDVDAIVTTVPHYLHTEIGKEALSRDIHALLEKPGDIYAEKVKEISDLAASKPNLTFGIFFNQRTNPLYQKVKSLIDNGEIGEIRRTNWIITTWWRPQAYYDQSSWRATWSGEGGGVLVNQAPHQIDLLQWLCGLPKKVYANVKYGYQRDLNVDDDVTTVLDYGNGATGVFITCTHDIIGTDRLEITGDKGKILVEDSKKITLKSLNQSETQMNQDMTWEEVAELFKGNGMGDIYKEETFEFESVWGQQHISVLENFTANILDGTPLIAPGSDGINEGHHHHHH,soluble
5,MAVRVCCHAPPGVSNHLFTFCAGNLTTGFSGGSVTSQKGGAAGLPTCSRRCPRGCLPGSDPLPRHPRRYAPPVTPPVTPPTTPAPRSRARMLELVFPKDTNYHGTAFGGWVLALMDKAASVAAVRHAGGNVVTARMDGVDFHVPIRVGDAVALDARVIRVGRSSMTIRVDVYRENMASGEQQLATGGLFTFVALGEDGKPRPVPPLPEGSTDSEQPDYEARPLEHHHHHH,not soluble
6,MGSDKIHHHHHHMKKHLNTLFVTTQGAYLSKEGETVVVKVDREVRLRVPVHTLGGIVCFGNIGCSPYLMGFCAEKSVCISFLSERGRFLARVQGPVSGNVLLRREQYRRADDPEFSAIMARYVLTGKIANCRTVLQRALRDHQEKINADSVRQAVDHLGRCLTSLGREKSLDNLRGIEGDAAHRYFSVFNELILMQKDAFIFDERNRRPPLDPMNCLLSFAYTLLVHDIRSALEAVGLDPAVGYLHRDRPGRPGLALDIMEEFRPFIVDRLVLSLVNLRKVQAKGFKKSESGAVQMDDDTRRTLLVSYQERKQEEMLHPFLGERTTFGLLFHVQAMLLARYLRGDLDGYPPFIYR,not soluble
7,MGSDKIHHHHHHMRVASPETFASQSYRLLPFRFERVNDDRFLLINEVGEHCYLNCADLNNLVNGYLTTSGKTFQNLESKSFVYSENNNFALRAFSAKYRARKSFLFDGPALHIFVLTLRCENSCEYCQVTRRSPDAVKYDMPLSIAKQAVLRMFESPAENLTVEFQGGEPLLAYDVLKYIVELCIELNITEQKSLQFVVATSLQNINMEMLEFFHLHNVHISTSVDGPQWLHQLNRPNSCSNSYEKTMHGLEMARGVLGHDRIAGMTTITRSSLTAIKTIIDEYVRLGFHSIFLRPLNMYGFAVKKENKVGYSSEDFNKFYEQALKYIIEINQQGYRLDEVNAALALNNILTPQATGYVDMRSPCGDGTGVLVYNYDGKVYPSDESRMLVEMGDESLALGSVSESYQDLMSSSVLNTILHAGIAEALPGCSDCAYLPYCGANPIQNYSRYGDMIGHRTFSAFCAKQKFLYRYVFNLLQDKSNRTVFNSWLPL,not soluble
8,MSLLIKNGTIVNDDAIFKSDVLVLDGRIVEIAPSIQPTPGLEVVDATDRLVIPGGIDPHTHMQLPFMGEIAKDDFHRGTEAAVAGGTTMIIDFVIPTKGESLLVAYDRWRGWADPKVVCDYGLSMAITSWGPEIAKEMEIVTGAEYGINSFKFFLAYAGVFMVRDEEFYQGMIQCAKLRALARVHAENGSVIAERCEHLLSSGITGPEGHTQSRPEELEAEATFRACTMASQANCPLYVVHVMSKGAAAAIAHHRKKGAVVFGEPIAAGLATDGSHYYNEDWLHAARYVMSPPLSRDPSTPSALMKLLAAGELHLTATDNCTFDCQQKSLGKDDFTKIPNGVNGVEDRMSVVWDKGVHAGIIDPMRFVAVTSTMAAKIFNCYPQKGRIAVGSDADIVIWNANATRTISKDTHHHAIDFNIFEGMQVHGVPEITISRGRTVWANGQLKTVQGSGQFIPLAPDSQIVFSAVDNRKKAMEPVKIDRIPYEPSALQTPDANANIVVKAPVRAAIPPGGASSIQF,not soluble
9,MASSSSAALRPFGTARLTPGRQTGRQTQQQISAPEPMIAIALSDMEYLMRSARSSRSSGRSERQPGCTCCCHIAAGVTVIPRVARFSIEGGLSTHTLMNHSDNRIAVKITCSDNNMYRVTPVYATVEPGQSLPLHIARITSDLIKRDRLCVNILEADGNKEAREIFKKNANTRAPASINMALEATNDNQNHHHQE,not soluble
10,MIELDQTNIPKHVAIIMDGNGRWAKQKNKMRIFGHTNGVTAVRKAVAYARQIGVEVLTLYAFSSENWSRPEQEISALMSLFMQALDREVKKLHKNNICLKIIGDVSRFSETLQEKIKKAENLTEKNTALTLNIAANYGGCWDIIQAAKQIAEKVKKEEMSVSDINNSTFQHHLATQNAPPVDLLIRTSGEQRISNFLLWQIAYAELYFSDVLWPDFNQLEFNRAIASYQQRHRRFGGTE,not soluble
11,MVLIKEFRVVLPCSVQEYQVGQLYSVAEASKNETGGGEGIEVLKNEPYEKDGEKGQYTHKIYHLKSKVPAFVRMIAPEGSLVFHEKAWNAYPYCRTIVTNEYMKDDFFIKIETWHKPDLGTLENVHGLDPNTWKTVEIVHIDIADRSQVEPADYKADEDPALFQSVKTKRGPLGPNWKKELANSPDCPQMCAYKLVTIKFKWWGLQSKVENFIQKQEKRIFTNFHRQLFCWIDKWIDLTMEDIRRMEDETQKELETMRKRGSVRGTSAADV,soluble
12,MGSDKIHHHHHHMDGREIELKLALAPEDLARIAQRPCLSAGRLAEPTSKRLSSIYYDTSDHILASQGIAVRVRRTGSGFVQTVKTAGTSVSGLFDRDEWEVPLASPDLDAEQLRLTGLAAFADGELADLLTPVFSTEVDRVLIRLGGEGWEAEVALDRGALVVGDRREEISEVELELVSGTPAHLFRLATHIQAETAARPLCLSKSERGYSLAAGKTAPVVKAKAPILTPAMTVEESFRAIARACLEHLMLNERCLLATEAGEAIHQMRVAMRRMRSAIKVFKAVTEGPDLERIKDDLRWLLAHLGPARDADVFLSEIVDPVLAAHPGNAGLIALRAHWRKDRETKLAAAISAVKSKRYATMTLNLGRWVETGDWLTPSHGGARRRLAEPIATFAAGRVGKVVTRLLKEGGETLSRLSPEQRHAVRIRGKQVRYAGEFFASLVPRKSTKVYLSELAELQDVLGKLNDIAVAGPKLSGRGAGAGSSRAAGLIAGWHQSRRATLLNDADKCWKRWRALPLPWDEK,not soluble
13,MGHHHHHHSHMSSKHDYTNPPWNAKVPVQRAMQWMPISQKAGAAWGVDPQLITAIIAIESGGNPNAVSKSNAIGLMQLKASTSGRDVYRRMGWSGEPTTSELKNPERNISMGAAYLNILETGPLAGIEDPKVLQYALVVSYANGAGALLRTFSSDRKKAISKINDLDADEFLEHVARNHPAPQAPRYIYKLEQALDAM,soluble
14,GHMPNIPPPFTAPYAPDDAEIAARLLPASHLSPPQEARIHRTATRLIEAIRKRDDRLGGVEDMLREFALSTKEGLALMVLAEALLRVPDARTADQFIEDKLGEGDFIHHETKSTAFLVNASAWALGLSARVIQPGETPDGTIGRLVKRLGAPAVRTATRQAMRLMGNHFVLGETIEQALERGKPRSGQKTRYSFDMLGEGARTAADARRYFDAYASAIETIGKAAGNHALPDRPGISVKLSALHPRFEAISRARVMVELVPQLLDLAQRAKAHDLNFTVDAEEADRLELSLDVIAATLADPSLKGWDGFGLAIQAYQKRASAVIDYVDALARAHDRKLMVRLVKGAYWDTEIKRAQERGLDGYPVFTRKAMTDLNYVACASKLLALRPRIFPQFATHNALTVATVLEMAEGSSGFEFQRLHGMGEALYEQLAKDHADIAYRTYAPVGSHRDLLAYLVRRLLENGANSSFVAQAADYRVPVPALLQRPADAIVRPQAAAHPRIPLPCDLFAPERRNSRGVEFGARTALDQLLTDVKAETGDLKPIADATPDQAHAAVAAARAGFAGWSRTPAGIRAAALEQAAHLLESRSAHFIALLQREGGKTLDDALSELREAADFCRYYAAQGRKLFGSETAMPGPTGESNALTMRGRGVFVAISPWNFPLAIFLGQVTAALMAGNSVVAKPAEQTPRIAREAVALLHEAGIPKSALYLVTGDGRIGAALTAHPDIAGVVFTGSTEVARSINRALAAKDGPIVPLIAETGGINAMIADATALPEQVADDVVTSAFRSAGQRCSALRLLFVQEDVADRMIEMVAGAARELKIGDPSDVATHVGPVIDVEAKQRLDAHIARMKTEARLHFAGPAPEGCFVAPHIFELTEAGQLTEEVFGPILHVVRYRPENLERVLRAIERTGYGLTLGVHSRIDDSIEAIIDRVQVGNIYVNRNMIGAVVGVQPFGGNGLSGTGPKAGGPHYLARFATEQTVTINTAAAGGNAALLAGEE,soluble
15,MAHHHHHHMLLAMCRYDCVGGCRERVCGGGGGGRGKGGEKKYRTEMGRASKDKRDIYYRKAKEEGYRARSAYKLLQLHEEFNILNRDEIQTGVVVLCAAPGSWSQLLARHLREEVGGRTEKQSLGAPRIVAVDLQEMMPIEGVQLLQGDITSEATAREIIRLLNIKEDTASVNDAYVDSEEDKSAIQTDKGGRSTARRPSLAPGGRNSYSDHTNSCEKKADLVVCDGAPDVTGMHELDEYLQHHLLLAALNITTFVLRCGGTFVTKIFRGPNTPFLVAKSEVFFRHVIIAKPRSSRNASMEAFMVCQDYQPPAGYRPSFDRPLTTTTRCFTPVAPLPPAFMHLQSEGRQITQKEKKGVEDQACMMESVIVPFLACGDLSGYDADMCYDRDSDVPVLPPVHPPRQAPYMTTACKNDEDSVVATNGAEDIMKRRRVE,not soluble
16,MATPDLTIRGGGIFGLAVAWAAVRRGAKVRLIESARIGAGSSGGVVGALSPHVPEQWNEKKAFQFESLAMGEAWWAAVADASGLPTGYDRLGRFQPLADARAVDHARARAEEARTLWQGRFSWEVVPAGGDFMPESPTGLVIHDTLTARLNPRLAVPALVQAIRAQGGEILIGEGEEAGPVVWATGVAGLEALSQDLGKPVGNGVKGQAMVVALDARDRPQVFGPGLLIVPHADGTTAVGSTAEKDWTAPDTTDAQLDEVHARAVALCPWLEGAPVLTRWAGLRPRARSLAPMLGEWPGRPGQYVANGGFKIGFGMAPKVGEVMAALVLEGRDEIPESFRVEASLKKKGKAEELEHHHHHH,not soluble
17,MQEKQHIHIGEIIQRLSGRKLPQPLIRLLERLIHQDEINDILDRYGHLEGVDFMTALVGYFHVDIDWNGADRLPSDKRCLFVSNHPLGGLDGICLSHLIGSHYDSDVRYIVNDILFHLRPLRKIFVPVNTRGRQKRESIDRLQEALESDLPVITFPAGFCSRLIEGKVQDTPWKKSFVRQAYASKRDIVPLFFDGLNSKRFYRIERLRQLLGLKFNIGMALLPDEMFRSKGRHFRVFAGRPIPWQSLASAPRDTAEQALHIRSLVYDLSPSALKK,not soluble
18,MTADDSPSDRWGPRCTTRGPGSDPRFDVPVRGVDVGPETRCAHYHGPRDVIAIRFACCDVFYPCHRCHEETATHPPERWPHDQFNASAVLCGRCRTVLTIEQYLDADHTCPACGAAFNPNCARHHDRYFCVGLEHHHHHH,not soluble
